This is an account of results in US20260053942A1 (Astellas, published 2026).

The Kd is the concentration at which binding is half-saturated. A higher Kd goes with a looser complex.

This assay has as its target T1, human TROP2 as used in the Biacore measurements (human, UniProt P09758 27-274).
T1 sequence: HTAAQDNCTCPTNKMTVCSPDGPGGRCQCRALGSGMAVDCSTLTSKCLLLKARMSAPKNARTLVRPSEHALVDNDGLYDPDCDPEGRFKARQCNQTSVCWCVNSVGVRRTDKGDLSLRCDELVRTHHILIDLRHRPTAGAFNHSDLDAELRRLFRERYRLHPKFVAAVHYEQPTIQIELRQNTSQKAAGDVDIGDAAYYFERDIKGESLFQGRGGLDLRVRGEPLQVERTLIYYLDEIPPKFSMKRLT
The experiment in a line: SPR (Biacore), format not stated.

B1: 2293-C04, affinity matured anti-Trop2 antibody from a synthetic ribosome display human antibody library (antibody, V domains shown)
VH: EVQLVESGGGLVQPGGSLRLSCAASGFNISNKWIHWVRQAPGKGLEWVGWIAPSSGDTDYADSVKGRFTISADTSKNTAYLQMNSLRAEDTAVYYCAREGYNWYWYVLDYWGQGTLVTVSS
VL: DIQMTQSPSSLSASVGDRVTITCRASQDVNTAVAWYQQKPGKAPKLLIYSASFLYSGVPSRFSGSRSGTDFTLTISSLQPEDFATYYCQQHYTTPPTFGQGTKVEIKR
modifications: SEQ ID NO 17 is listed with pAcF at K42; the filing does not say whether the antibody measured by Biacore carried it
For B1, binding was characterised by a dissociation constant (Kd) of 1.1 nM.
